Data taken from publication PMC10465574, “Chlorfenapyr metabolism by mosquito P450s associated with pyrethroid resistance identifies potential activation markers” (Scientific Reports, 2023).

T1: CYP6P3 (Anopheles gambiae, UniProt Q8T632)
T1 construct: recombinant, pCWori+ vector, E. coli membranes co-expressing An. gambiae CPR; cytochrome b5 added in metabolism assays; with NADPH--cytochrome P450 reductase
T1 sequence (Q8T632 1-509): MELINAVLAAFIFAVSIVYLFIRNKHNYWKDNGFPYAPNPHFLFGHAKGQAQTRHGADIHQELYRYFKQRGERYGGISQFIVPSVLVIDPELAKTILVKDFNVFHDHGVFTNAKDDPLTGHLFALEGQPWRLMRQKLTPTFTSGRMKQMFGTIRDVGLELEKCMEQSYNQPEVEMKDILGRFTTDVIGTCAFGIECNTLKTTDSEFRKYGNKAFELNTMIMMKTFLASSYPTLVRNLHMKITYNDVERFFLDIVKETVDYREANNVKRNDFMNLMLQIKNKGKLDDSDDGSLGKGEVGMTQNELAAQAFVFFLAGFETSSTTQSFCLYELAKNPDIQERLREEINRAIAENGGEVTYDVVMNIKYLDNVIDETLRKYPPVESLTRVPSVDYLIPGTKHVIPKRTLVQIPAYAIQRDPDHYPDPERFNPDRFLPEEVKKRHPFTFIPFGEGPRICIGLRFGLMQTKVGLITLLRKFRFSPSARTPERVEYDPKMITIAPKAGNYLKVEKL
T1 sequence (Q86QH5 1-679 partner): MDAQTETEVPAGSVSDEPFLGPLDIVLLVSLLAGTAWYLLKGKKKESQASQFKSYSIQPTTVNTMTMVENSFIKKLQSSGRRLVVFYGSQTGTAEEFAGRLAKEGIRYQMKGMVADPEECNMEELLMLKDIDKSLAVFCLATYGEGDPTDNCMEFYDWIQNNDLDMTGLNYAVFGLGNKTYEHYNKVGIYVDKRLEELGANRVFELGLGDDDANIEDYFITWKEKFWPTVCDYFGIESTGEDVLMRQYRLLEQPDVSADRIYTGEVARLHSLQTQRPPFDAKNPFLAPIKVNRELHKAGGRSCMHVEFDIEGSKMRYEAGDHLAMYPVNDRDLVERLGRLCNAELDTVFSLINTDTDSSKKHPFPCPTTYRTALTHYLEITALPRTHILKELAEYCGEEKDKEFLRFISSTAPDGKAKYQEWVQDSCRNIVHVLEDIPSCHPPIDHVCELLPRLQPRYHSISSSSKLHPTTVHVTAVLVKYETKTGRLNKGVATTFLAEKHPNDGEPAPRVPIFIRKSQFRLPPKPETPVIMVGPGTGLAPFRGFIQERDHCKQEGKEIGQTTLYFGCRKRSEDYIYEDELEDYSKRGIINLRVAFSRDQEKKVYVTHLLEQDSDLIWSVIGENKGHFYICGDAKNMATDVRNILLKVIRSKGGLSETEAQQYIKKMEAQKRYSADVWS

T2: CYP9K1 (Anopheles gambiae, UniProt Q8T633)
T2 construct: recombinant, pCWori+ vector, E. coli membranes co-expressing An. gambiae CPR; cytochrome b5 added; with NADPH--cytochrome P450 reductase
T2 sequence (Q8T633 1-531): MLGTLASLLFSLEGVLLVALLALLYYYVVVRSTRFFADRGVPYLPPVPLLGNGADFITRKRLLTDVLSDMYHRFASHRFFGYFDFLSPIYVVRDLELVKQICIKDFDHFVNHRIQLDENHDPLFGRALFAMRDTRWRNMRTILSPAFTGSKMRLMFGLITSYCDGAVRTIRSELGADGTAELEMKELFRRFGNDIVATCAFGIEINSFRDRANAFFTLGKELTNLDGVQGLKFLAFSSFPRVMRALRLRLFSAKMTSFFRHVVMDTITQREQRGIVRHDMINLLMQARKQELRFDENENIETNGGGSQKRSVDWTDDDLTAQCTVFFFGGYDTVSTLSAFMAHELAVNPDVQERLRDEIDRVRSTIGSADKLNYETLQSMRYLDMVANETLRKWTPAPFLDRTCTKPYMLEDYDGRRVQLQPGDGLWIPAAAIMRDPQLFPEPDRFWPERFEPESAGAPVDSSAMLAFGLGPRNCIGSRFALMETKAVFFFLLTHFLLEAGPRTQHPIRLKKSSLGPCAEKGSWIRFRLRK
T2 sequence (Q86QH5 1-679 partner): T1 sequence (Q86QH5 1-679 partner)

B1: CYP6P3 (Anopheles gambiae) (protein)
chain: T1 sequence (Q8T632 1-509)
notes: recombinant, pCWori+ vector, E. coli membranes co-expressing An. gambiae CPR; cytochrome b5 added in metabolism assays; with NADPH--cytochrome P450 reductase
B2: CYP9K1 (Anopheles gambiae) (protein)
chain: T2 sequence (Q8T633 1-531)
notes: recombinant, pCWori+ vector, E. coli membranes co-expressing An. gambiae CPR; cytochrome b5 added; with NADPH--cytochrome P450 reductase

How the values were obtained:
[1] = target: T1, CYP6P3; assay: inhibition of diethoxyfluorescein (DEF) fluorescent probe metabolism; assay type: biochemical
[2] = target: T2, CYP9K1; assay: inhibition of chlorfenapyr depletion, HPLC; assay type: biochemical
[3] = substrate: CCOCn1c(-c2ccc(Cl)cc2)c(C#N)c(Br)c1C(F)(F)F; assay: tralopyril formation by HPLC, Michaelis-Menten fit; assay type: biochemical, Anopheles gambiae; conditions: NADPH regeneration system, 0.8 µM cytochrome b5, 50 mM potassium phosphate pH 7.4, recombinant E. coli membranes

Row | Molecule | IC50 [1] [µM] | inhibition at 10 µM [2] [%] | Km [3] [µM] | kcat [3] [s⁻¹]
1 | CC1(C)C(C=C(Cl)Cl)C1C(=O)OC(C#N)c1cccc(Oc2ccccc2)c1 (stereo not drawn) [α-cypermethrin] | 16.7 | 56.8 |  | 
2 | CCOCn1c(-c2ccc(Cl)cc2)c(C#N)c(Br)c1C(F)(F)F [chlorfenapyr] | 30.4 |  |  | 
3 | B1 |  |  | 16.32 | 0.0285
4 | B2 |  |  | 10.13 | 0.112
